T1: extracellular domain of human IL10Rα (amino acids 22-235, UniProtKB Q13651) (human, UniProt Q13651 22-235)
T1 construct: range 22-235; Antigen used for camel immunization and for phage selection; also called hIL-10Rαecd; hIL10-R1
T1 sequence (looked up): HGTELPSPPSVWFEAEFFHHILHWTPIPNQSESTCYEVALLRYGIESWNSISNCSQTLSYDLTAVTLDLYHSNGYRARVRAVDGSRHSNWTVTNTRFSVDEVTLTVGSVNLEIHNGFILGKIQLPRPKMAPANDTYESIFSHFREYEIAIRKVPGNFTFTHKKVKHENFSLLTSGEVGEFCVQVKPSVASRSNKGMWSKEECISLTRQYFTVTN

T2: extracellular domain of human IL10Rβ (amino acids 20-220, UniProtKB Q08334) (human, UniProt Q08334 20-220)
T2 construct: range 20-220; Antigen used for camel immunization and for phage selection; also called hIL-10Rβecd; hIL10-R2
T2 sequence (looked up): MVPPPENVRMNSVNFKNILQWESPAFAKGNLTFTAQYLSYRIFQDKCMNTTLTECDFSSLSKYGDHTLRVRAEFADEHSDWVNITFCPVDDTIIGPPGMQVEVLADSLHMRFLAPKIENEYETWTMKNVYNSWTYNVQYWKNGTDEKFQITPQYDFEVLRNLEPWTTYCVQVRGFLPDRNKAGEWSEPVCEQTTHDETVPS

B1: anti-hIL-10Rαecd VHH SEQ ID NO 48 (VHH)
VHH: QVQLQESGGGSVQAGGSLRLSCTVSGYTYSSNCMGWFRQAPGKEREGVATIYTGGGNTYYADSVKGRFTISQDNAKNTVYLQMNNLKPEDTAMYYCAAEPLSRVYGGSCPTPTFDYWGQGTQVTVSS
notes: Camel VHH selected by phage display; also called Anti-IL10Rα
B2: anti-hIL-10Rβecd VHH SEQ ID NO 52 (VHH)
VHH: QVQLQESGGGSVQAGGSLRLSCAASGYTYSSYCMGWFRQAPGKEREGVAHIDSDGSTSYADSVKGRFTISKDNAKNTLYLQMNSLKPEDTAMYYCAADPIPGPGYCDGGPNKYWGQGTQVTVSS
notes: Camel VHH selected by phage display; also called Anti-IL10Rβ
B3: anti-hIL-10Rαecd VHH SEQ ID NO 50 (VHH)
VHH: QVQLQESGGGSVQAGGSLRLSCAASGYSNCSYDMTWYRQAPGKEREFVSAIHSDGSTRYADSVKGRFFISQDNAKNTVYLQMNSLKPEDTAMYYCKTDPLHCRAHGGSWYSVRANYWGQGTQVTVSS
notes: as for B1
B4: anti-hIL-10Rαecd VHH SEQ ID NO 44 (VHH)
VHH: QVQLQESGGGSVQAGGSLRLSCAASRYLYSIDYMAWFRQSPGKEREPVAVIYTASGATFYPDSVKGRFTISQDNAKMTVYLQMNSLKSEDTAMYYCAAVRKTDSYLFDAQSFTYWGQGTQVTVSS
notes: as for B1
B5: anti-hIL-10Rβecd VHH SEQ ID NO 57 (VHH)
VHH: QVQLQESGGGSVQTGGSLRLSCAASGYTYLRGCMGWFRQAPGKEREGVAVMDVVGDRRSYIDSVKGRFTISRDNAANSVYLQMDNLKPEDTAMYYCTAGPNCVGWRSGLDYWGQGTQVTVSS
notes: as for B2
B6: anti-hIL-10Rαecd VHH SEQ ID NO 45 (VHH)
VHH: QVQLQESGGGSVQAGGSLRLSCAASRFTYSSYCMGWFRQAPGKEREGVASIDSDGSTSYTDSVKGRFTISKDNAKNTLYLQMNSLKPEDTAMYYCALDLMSTVVPGFCGFLLSAGMDYWGKGTQVTVSS
notes: as for B1
B7: anti-hIL-10Rαecd VHH SEQ ID NO 47 (VHH)
VHH: QVQLQESGGGSVQAGGSLRLSCAVSGYAYSTYCMGWFRQAPGKEREGVAAIDSGGSTSYADSVKGRFTISKDNAKNTLYLRMNSLKPEDTAMYYCAAVPPPPDGGSCLFLGPEIKVSKADFRYWGQGTQVTVSS
notes: as for B1
B8: anti-hIL-10Rβecd VHH SEQ ID NO 56 (VHH)
VHH: QVQLQESGGGSVQAGGSLRLSCAASGYSYSSYCMGWFRQAPGKEREGVATIDSDGMTRYADSVKGRFTISKDNAKNTLYLQMNSLKPEDTAMYYCAAPLYDCDSGAVGRNPPYWGQGTQVTVSS
notes: as for B2
B9: anti-hIL-10Rαecd VHH SEQ ID NO 46 (VHH)
VHH: QVQLQESGGGSVQAGGSLRLSCAASGYTYSMYCMGWFRQAPGKEREGVAQINSDGSTSYADSVKGRFTISKDNAKNTLYLQMNSLKPEDTAMYYCAADSRVYGGSWYERLCGPYTYEYNYWGQGTQVTVSS
notes: as for B1
B10: anti-hIL-10Rαecd VHH SEQ ID NO 49 (VHH)
VHH: QVQLQESGGGSVQAGGSLRLSCGASGYTYSSYCMGWFRQVPGKEREGVAVIDSDGSTSYADSVKGRFTISKDNGKNTLYLQMNSLKPEDTAMYYCAADLGHYRPPCGVLYLGMDYWGKGTQVTVSS
notes: as for B1

What was measured:
[1] = target: T1, extracellular domain of human IL10Rα …; experiment: phage display biopanning on the antigen, positive colonies by PE-ELISA
Protocol: (§1) Library biopanning was conducted to screen candidates against the antigens after library construction. Phage display technology was applied in this procedure. Positive colonies were identified by PE-ELISA.
(§2) Camels were immunized with the extracellular domains of the human IL10Rα (amino acids 22-235, UniProtKB Q13651, hIL-10Rαecd) and IL10Rβ (amino acids 20-220, UniProtKB Q08334, hIL-10Rβecd) weekly for seven weeks and PBMCs harvested on day 52. Phage display libraries were constructed and biopanning conducted as described in Example 1 above. 50 VHH sequences were obtained after selection on hIL10-R1 and 47 VHH sequences were obtained after selection on hIL10-R2. Sequences were clonotyped using germline assignment and CDR3 sequence similarity.

[2] = target: T2, extracellular domain of human IL10Rβ …; experiment: as above
Protocol: as §1, §2

| Binder | binding result [1] | binding result [2] |
| --- | --- | --- |
| B1 | binds |  |
| B2 |  | binds |
| B3 | binds |  |
| B4 | binds |  |
| B5 |  | binds |
| B6 | binds |  |
| B7 | binds |  |
| B8 |  | binds |
| B9 | binds |  |
| B10 | binds |  |

Source: US20250376528A1 (SYNTHEKINE, published 2025)
